Here are results for two molecules from patent CN117603358A (INST MICROBIOLOGY CAS; 3SBIO GROUP; SHANXI ADVANCED …, dated 2024).

Some results are limits rather than exact numbers.

What all share (assay): cell-based or functional assay
Test [1] has as its target S蛋白, SARS-CoV-2 XBB (SARS-CoV-2 XBB).
Test [2] has as its target S蛋白, SARS-CoV-2 BA.4/5 (SARS-CoV-2 BA.4/5).
In test [3] the target is T1, S蛋白, SARS-CoV-2 XBB.1.5 (SARS-CoV-2 XBB.1.5).
The target in test [4] is S蛋白, SARS-CoV-2 BF.7 (SARS-CoV-2 BF.7).
In test [5] the target is S蛋白, SARS-CoV-2 BQ.1 (SARS-CoV-2 BQ.1).
Test [6] has as its target T2, S蛋白, SARS-CoV-2 BA.2.75 (SARS-CoV-2 BA.2.75).
Test [7] concerns the target S蛋白, SARS-CoV-2 BQ.1.1 (SARS-CoV-2 BQ.1.1).
In test [8] the target is S蛋白, SARS-CoV-2 Delta (SARS-CoV-2 Delta).
The target of test [9] is S蛋白, SARS-CoV-2 BA.1 (SARS-CoV-2 BA.1).
Test [10] has as its target S蛋白, SARS-CoV-2 EG.5突变株 (SARS-CoV-2 EG.5).
In test [11] the target is S蛋白, SARS-CoV-2 XBB (SARS-CoV-2 XBB). This is another data set of the same source.
Test [12] deals with S蛋白, SARS-CoV-2 BA.4/5 (SARS-CoV-2 BA.4/5). The source holds these as a separate data set.
Test [13] deals with T1, S蛋白, SARS-CoV-2 XBB.1.5. This is another data set of the same source.
Test [14] deals with S蛋白, SARS-CoV-2 BF.7 (SARS-CoV-2 BF.7). This is another data set of the same source.
Test [15] concerns the target S蛋白, SARS-CoV-2 BQ.1 (SARS-CoV-2 BQ.1). This is another data set of the same source.
In test [16] the target is T2, S蛋白, SARS-CoV-2 BA.2.75. This is another data set of the same source.
In test [17] the target is S蛋白, SARS-CoV-2 BA.3 (SARS-CoV-2 BA.3).
Test [18] addresses S蛋白, SARS-CoV-2 XBB.1.16 (SARS-CoV-2 XBB.1.16).
In test [19] the target is S蛋白, SARS-CoV-2 BQ.1.1 (SARS-CoV-2 BQ.1.1). This is another data set of the same source.
The target of test [20] is S蛋白, SARS-CoV-2 BA.1.1 (SARS-CoV-2 BA.1.1).
Test [21] deals with S蛋白, SARS-CoV-2 BA.2 (SARS-CoV-2 BA.2).
The target in test [22] is S蛋白, SARS-CoV-2 BA.1 (SARS-CoV-2 BA.1). This is another data set of the same source.

B1: L4.65单抗 (antibody, V domains shown)
VH: QITLKESGPTLVKPTQTLTLTCTFSGFSLSTSGVGVAWIRQPPGKALEWLALIYWDNDKRSSPSLNNRLTITKDTSKNQVVLTMTNMDPEDTATYYCAHFFSHYDSSNYYYGSWFDPWGQGTLVTVSS
VL: EIVLTQSPGTLSLSPGERATLSCRASQSFDSRYLGWYQQKSGQAPRLLIYGASSRATGIPDRFSGSGSGTDFTLTISRLEPEDFAVYYCQQFGDSPFTFGQGTKLEIKR
In the case of B1, the “假病毒中和活性 IC50” value in [1] is 21.4 ng/mL; in [2], 1.38 ng/mL; in test [3] it was 54.1 ng/mL; in test [4], 2.12 ng/mL; in test [5], more than 2000 ng/mL; in test [6], 11.2 ng/mL. Moreover, the “假病毒中和活性 IC50” value in test [7] was more than 2000 ng/mL; in [8], 2.52 ng/mL; in test [9], 1.35 ng/mL. In addition, the “假病毒中和效果 IC50” value came out at 0.0521 µg/mL in [10]; 0.00335 µg/mL in [11]; 0.000377 µg/mL in test [12]; 0.0137 µg/mL in [13]; 0.000446 µg/mL in test [14]; 2.09 µg/mL in test [15]. Moreover, the “假病毒中和效果 IC50” value is 0.00194 µg/mL in test [16]; 0.00044 µg/mL in test [17]; 0.0103 µg/mL in test [18]; 4.58 µg/mL in [19]; 0.00028 µg/mL in test [20]; 0.00039 µg/mL in [21]. The “假病毒中和效果 IC50” value in test [22] is 0.000394 µg/mL.

B2: CoV56单抗 (antibody, V domains shown)
VH: EVQLVESGGGVVQPGGSLRLSCAVSGFTFDDYAMHWVRQAPGKGLDWVSLISGDGSYTYYADSVKGRFTISRDSSKNSLYLQMNSLRTEDTALYYCAKAQTPTLWWLQDAFDIWGQGTMVTVSS
VL: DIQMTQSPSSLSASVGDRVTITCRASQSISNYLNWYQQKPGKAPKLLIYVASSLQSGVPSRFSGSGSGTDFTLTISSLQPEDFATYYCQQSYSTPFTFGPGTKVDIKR
Consider B2, for which the “假病毒中和活性 IC50” value in test [1], in [2], in [3], in test [4], in [5] and in test [6] was more than 2000 ng/mL each time. In addition, the “假病毒中和活性 IC50” value in [7], in [8] and in test [9] was more than 2000 ng/mL throughout. The “假病毒中和效果 IC50” value in test [10] turned out to be 13.6 µg/mL; in test [11] it was 15.9 µg/mL; in test [12] it was 7.53 µg/mL; in [13] it was 11.8 µg/mL; in test [14], 11.7 µg/mL; in test [15], 19.6 µg/mL. For the same molecule, the “假病毒中和效果 IC50” value amounted to 58.8 µg/mL in test [16]; 18.5 µg/mL in [17]; 21.7 µg/mL in test [18]; 15.9 µg/mL in [19]; 10.8 µg/mL in test [20]; 8.32 µg/mL in test [21]. Also, the “假病毒中和效果 IC50” value in test [22] amounted to 14.8 µg/mL.
